# Source: publication PMC8047137, “Smyd1 Orchestrates Early Heart Development Through Positive and Negative Gene Regulation” (Frontiers in Cell and Developmental Biology, 2021)
# B1: Myc-tagged Smyd1 (SET and MYND domain-containing protein 1) (natural protein, mouse, UniProt P97443 1-490, looked up)
# chain: MTIGSMENVEVFTSEGKGRGLKATKEFWAADVIFAERAYSAVVFDSLINFVCHTCFKRQEKLHRCGQCKFAHYCDRTCQKDAWLNHKNECAAIKKYGKVPNENIRLAARIMWRVEREGTGLTEGCLVSVDDLQNHVEHFGEEEQKELRVDVDTFLQYWPPQSQQFSMQYISHIFGVINCNGFTLSDQRGLQAVGVGIFPNLGLVNHDCWPNCTVIFNNGNHEAVKSMFHTQMRIELRALGKISEGEELTVSYIDFLHLSEERRRQLKKQYYFDCSCEHCQKGLKDDLFLAAKEDPKPSQEVVKEMIQFSKDTLEKIDKARSEGLYHEVVKLCRECLEKQEPVFADTNLYVLRLLSIASEVLSYLQAYEEASHYARRMVDGYMKLYHHNNAQLGMAVMRAGLTNWHAGHIEVGHGMICKAYAILLVTHGPSHPITKDLEAMRMQTEMELRMFRQNEFMYHKMREAALNNQPMQVMAEPSNEPAPALFHKKQ
# Molecular target: V5-tagged ASH2L (absent small homeotic-2-like protein) (mouse, UniProt Q91X20 1-623)
# Assay: cell-based or functional assay
# Chain of V5-tagged ASH2L (absent small homeotic-2-like protein) (Q91X20 whole entry): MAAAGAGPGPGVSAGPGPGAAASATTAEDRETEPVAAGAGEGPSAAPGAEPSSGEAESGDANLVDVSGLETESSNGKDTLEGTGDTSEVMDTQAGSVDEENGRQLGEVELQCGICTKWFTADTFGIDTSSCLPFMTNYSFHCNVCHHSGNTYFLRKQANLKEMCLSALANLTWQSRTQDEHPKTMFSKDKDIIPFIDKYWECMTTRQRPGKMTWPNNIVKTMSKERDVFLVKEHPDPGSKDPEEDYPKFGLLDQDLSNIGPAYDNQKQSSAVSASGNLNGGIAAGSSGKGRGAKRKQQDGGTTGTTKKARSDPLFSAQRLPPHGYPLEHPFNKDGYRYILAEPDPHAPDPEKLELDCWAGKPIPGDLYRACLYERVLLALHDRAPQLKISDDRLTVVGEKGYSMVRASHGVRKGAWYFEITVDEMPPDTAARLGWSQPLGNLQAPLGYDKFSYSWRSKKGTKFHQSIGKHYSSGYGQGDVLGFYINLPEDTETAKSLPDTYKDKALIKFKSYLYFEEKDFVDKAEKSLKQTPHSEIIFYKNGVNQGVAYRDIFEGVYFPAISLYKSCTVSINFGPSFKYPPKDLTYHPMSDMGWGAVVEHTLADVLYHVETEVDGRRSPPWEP
binder,measurement,value
B1,"Isl1 promoter (pLG3-Isl1-WT) luciferase reporter activity in C2C12 cells, ASH2L overexpressed with Smyd1",25 fold above basal level
